Measurements taken from patent US20230293638A1 (Eli Lilly, published 2023).
Numbered stars: 1 amine (or outer) side, 2 acyl side, 3 side chain; on linkers, the order of the positions; unused ones are H or OH. Square brackets hold non-standard residues; d marks the D form. Side chains are listed from the residue outwards. Ends that are not written are not given here. * marks the point of attachment. C20 diacid = O=C(O)CCCCCCCCCCCCCCCCCCC(=O)*; γGlu = O=C(O)[C@H](CCC(=O)[*:2])N[*:1]; AEEA = NCCOCCOCC(=O)O; Aib = CC(C)(N)C(=O)O

Key:
[1] = biological target: human GLP-1 receptor (human, UniProt P43220 24-463); experiment: cell-based or functional assay
[2] = biological target: T1, human gastric inhibitory peptide receptor (human, UniProt P48546 22-466); experiment: cell-based or functional assay
T1 sequence (looked up): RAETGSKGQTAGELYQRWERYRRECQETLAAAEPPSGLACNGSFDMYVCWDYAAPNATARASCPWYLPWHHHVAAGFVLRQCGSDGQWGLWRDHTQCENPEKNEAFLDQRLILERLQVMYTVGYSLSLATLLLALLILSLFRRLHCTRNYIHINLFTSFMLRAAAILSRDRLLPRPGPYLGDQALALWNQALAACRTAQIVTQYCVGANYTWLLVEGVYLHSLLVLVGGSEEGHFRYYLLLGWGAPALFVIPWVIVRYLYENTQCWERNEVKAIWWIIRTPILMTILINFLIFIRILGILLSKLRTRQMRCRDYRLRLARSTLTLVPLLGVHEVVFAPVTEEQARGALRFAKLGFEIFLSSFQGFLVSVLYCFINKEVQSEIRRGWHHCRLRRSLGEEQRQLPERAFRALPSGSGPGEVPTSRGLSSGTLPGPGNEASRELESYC

Row | Binder | hGLPIR cAMP EC50 ratio [1] | hGIPR cAMP EC50 ratio [2]
1 | YXEGTXTSDYSILLDKKAQXAFIEYLIEGG (Aib2; αMeF6; K17((2-[2-(2-Amino-ethoxy)-ethoxy]-acetyl)2-(γGlu)-CO-(CH2)18-CO2H); Aib20; C-terminal NH2) [Peptide 98] | 0.384 | 
2 | YXEGTXTSDXSIXLDXKAQXEFIXXLIEGG (Aib2; αMeF(2F)6; 4Pal10; αMeL13; Orn16; K17((2-[2-(2-Amino-ethoxy)-ethoxy]-acetyl)2-(γGlu)-CO-(CH2)16-CO2H); Aib20; D-Glu24; αMeY25; C-terminal NH2) [Peptide 265] | 3.27 | 9.77
3 | Y[Aib]EGTFTSDYSILLDKIAQ[Aib]AFIEYLIK([AEEA-AEEA-γGlu-C20 diacid])GG-NH2 (N-terminus assumed; SMILES CC[C@H](C)[C@H](NC(=O)[C@H](CCCCN)NC(=O)[C@H](CC(=O)O)NC(=O)[C@H](CC(C)C)NC(=O)[C@H](CC(C)C)NC(=O)[C@@H](NC(=O)[C@H](CO)NC(=O)[C@H](Cc1ccc(O)cc1)NC(=O)[C@H](CC(=O)O)NC(=O)[C@H](CO)NC(=O)[C@@H](NC(=O)[C@H](Cc1ccccc1)NC(=O)[C@@H](NC(=O)CNC(=O)[C@H](CCC(=O)O)NC(=O)C(C)(C)NC(=O)[C@@H](N)Cc1ccc(O)cc1)[C@@H](C)O)[C@@H](C)O)[C@@H](C)CC)C(=O)N[C@@H](C)C(=O)N[C@@H](CCC(N)=O)C(=O)NC(C)(C)C(=O)N[C@@H](C)C(=O)N[C@@H](Cc1ccccc1)C(=O)N[C@H](C(=O)N[C@@H](CCC(=O)O)C(=O)N[C@@H](Cc1ccc(O)cc1)C(=O)N[C@@H](CC(C)C)C(=O)N[C@H](C(=O)N[C@@H](CCCCNC(=O)COCCOCCNC(=O)COCCOCCNC(=O)CC[C@H](NC(=O)CCCCCCCCCCCCCCCCCCC(=O)O)C(=O)O)C(=O)NCC(=O)NCC(N)=O)[C@@H](C)CC)[C@@H](C)CC) [Peptide 73] | 0.0225 | 
4 | YXEGTXTSDYSILLDKIAQXAFIEYLIKGG (Aib2; αMeF6; Aib20; K28((2-[2-(2-Amino-ethoxy)-ethoxy]-acetyl)2-(γGlu)-CO-(CH2)18-CO2H); C-terminal NH2) [Peptide 95] | 0.0576 | 
5 | YXEGTXTSDXSIXLDXKAQXEFIXXLIEGGPSSGAPPPS (Aib2; αMeF(2F)6; 4Pal10; αMeL13; Orn16; K17((2-[2-(2-Amino-ethoxy)-ethoxy]-acetyl)2-(γGlu)-CO-(CH2)16-CO2H); Aib20; D-Glu24; αMeY25; C-terminal NH2) [Peptide 4] | 1.41 | 
6 | YXEGTFTSDYSIXLDKIAQXAFIEYLIKGG (Aib2; αMeL13; Aib20; K28((2-[2-(2-Amino-ethoxy)-ethoxy]-acetyl)2-(γGlu)-CO-(CH2)18-CO2H); C-terminal NH2) [Peptide 97] | 0.0268 | 
7 | YXEGTXTSDYSIXLDEKAQXEFIEYLIEGG (Aib2; αMeF(2F)6; αMeL13; K17((2-[2-(2-Amino-ethoxy)-ethoxy]-acetyl)2-(γGlu)-CO-(CH2)16-CO2H); Aib20; C-terminal NH2) [Peptide 104] | 1.85 | 
8 | YXEGTXTSDYSIXLDEKAQXEFIEYLIEGG (Aib2; αMeF(2F)6; αMeL13; K17((2-[2-(2-Amino-ethoxy)-ethoxy]-acetyl)2-(γGlu)-CO-(CH2)18-CO2H); Aib20; C-terminal NH2) [Peptide 103] | 0.655 | 
9 | YXEGTFTSDYXILLDKKAQXAFIEYLIEGGPSSGAPPPS (Aib2; D-Ser11; K17((2-[2-(2-Amino-ethoxy)-ethoxy]-acetyl)2-(γGlu)-CO-(CH2)18-CO2H); Aib20; C-terminal NH2) [Peptide 81] | 0.063 | 
10 | YXEGTFTSDYSILLDKKAQXAFIXYLIEGGPSSGAPPPS (Aib2; K17((2-[2-(2-Amino-ethoxy)-ethoxy]-acetyl)2-(γGlu)-CO-(CH2)18-CO2H); Aib20; D-Glu24; C-terminal NH2) [Peptide 84] | 0.173 | 
11 | YXEGTFTSDYSILLDKKAQXAFIEYLIXGGPSSGAPPPS (Aib2; K17((2-[2-(2-Amino-ethoxy)-ethoxy]-acetyl)2-(γGlu)-CO-(CH2)18-CO2H); Aib20; D-Glu28; C-terminal NH2) [Peptide 83] | 0.166 | 
12 | YXXGTFTSDYSILLDKKAQXAFIEYLIEGGPSSGAPPPS (Aib2; Aad3; K17((2-[2-(2-Amino-ethoxy)-ethoxy]-acetyl)2-(γGlu)-CO-(CH2)18-CO2H); Aib20; C-terminal NH2) [Peptide 89] | 0.175 | 
13 | YXEGTXTSDYSIXLDKKAQXAFIEYLIEGG (Aib2; αMeF6; αMeL13; K17((2-[2-(2-Amino-ethoxy)-ethoxy]-acetyl)2-(γGlu)-CO-(CH2)18-CO2H); Aib20; C-terminal NH2) [Peptide 99] | 0.629 | 
